This note sets out measurements from paper PMC12122801 (Nature Communications, 2025).

In this experiment the target is Mycobacterium tuberculosis MmpL5 (Rv0676c) with a C-terminal 1×FLAG tag (Mycobacterium tuberculosis, UniProt P9WJV1). Briefly: cryo-EM structure.
Chain of Mycobacterium tuberculosis MmpL5 (Rv0676c) with a C-terminal 1×FLAG tag (P9WJV1 whole entry): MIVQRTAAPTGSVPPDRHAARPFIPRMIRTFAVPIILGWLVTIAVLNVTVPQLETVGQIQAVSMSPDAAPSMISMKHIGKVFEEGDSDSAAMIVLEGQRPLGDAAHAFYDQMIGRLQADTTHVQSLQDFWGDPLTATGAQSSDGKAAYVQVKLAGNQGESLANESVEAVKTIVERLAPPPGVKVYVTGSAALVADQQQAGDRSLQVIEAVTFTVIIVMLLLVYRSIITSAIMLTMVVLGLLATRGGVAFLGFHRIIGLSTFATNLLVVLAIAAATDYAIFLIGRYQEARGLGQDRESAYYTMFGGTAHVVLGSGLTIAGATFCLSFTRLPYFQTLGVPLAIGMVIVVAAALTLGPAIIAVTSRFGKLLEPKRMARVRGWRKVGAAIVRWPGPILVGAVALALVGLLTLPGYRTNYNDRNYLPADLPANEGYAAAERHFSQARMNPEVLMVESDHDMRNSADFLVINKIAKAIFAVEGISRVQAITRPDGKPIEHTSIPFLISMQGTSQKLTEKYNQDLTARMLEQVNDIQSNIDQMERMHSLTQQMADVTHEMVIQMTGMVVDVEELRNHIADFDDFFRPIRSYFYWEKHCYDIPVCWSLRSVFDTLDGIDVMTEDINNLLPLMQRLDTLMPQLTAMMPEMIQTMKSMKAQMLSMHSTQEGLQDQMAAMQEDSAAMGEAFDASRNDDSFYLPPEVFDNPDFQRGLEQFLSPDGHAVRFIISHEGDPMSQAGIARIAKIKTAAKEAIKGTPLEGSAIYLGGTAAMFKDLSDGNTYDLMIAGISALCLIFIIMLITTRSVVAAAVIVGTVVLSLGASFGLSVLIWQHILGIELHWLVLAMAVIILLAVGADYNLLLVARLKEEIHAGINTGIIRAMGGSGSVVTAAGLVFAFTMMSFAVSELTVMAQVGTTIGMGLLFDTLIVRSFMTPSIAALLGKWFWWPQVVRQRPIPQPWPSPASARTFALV

B1: Mycobacterium smegmatis acyl carrier protein AcpM (MSMEG_4326) (natural protein)
chain: MAATQEEIIAGLAEIIEEVTGIEPSEVTPEKSFVDDLDIDSLSMVEIAVQTEDKYGVKIPDEDLAGLRTVGDVVAYIQKLEEENPEAAAALREKFAADQ
modifications: 4'-phosphopantetheine (Ppant) covalently attached to Ser41 via a phosphodiester (holo-form)
For B1, the binding result is “binds”.
